Experimental data published in PMC10653890, “The morphogenic protein CopD controls the spatio-temporal dynamics of PBP1a and PBP2b in Streptococcus pneumoniae” (mBio, 2023).

B1: CopDED, extracellular two-PEPSY domain of CopD (Met38 to Leu162) (domain or fragment)
chain: SMKPYQTAKSEGEKLAQQYAGLEQADQVDLYNGLESYYSVLGRNKQQEALAVLIGKDDHKIYVYQLNQGISQEKAETVSKEKGAGEIDKITFGRYQDKPIWEVKSGSDFYLVDFETGALVNKEGL
modifications: labelled with the Protein labeling kit red NHS 2nd generation (Nanotemper)

Assays:
[1] = target: T1, PBP1aTP, transpeptidase domain of PBP1a (Ser266 to Asn650) (S. pneumoniae R800 strain, UniProt Q8DR59 266-650); test: MST; Monolith NT.115; labelled CopDED at 168 nM, PBP2bTP 5.2 µM to 0.159 nM or PBP1aTP 4.5 µM to 0.137 nM; 20 mM HEPES pH 7.5, 300 mM NaCl, 10% glycerol, 0.1% Tween 20; 25°C; conditions: both partners purified
T1 construct: also called PBP1aTP-6his; source: E. coli BL21 star (DE3), purified (Ni-NTA; extracellular domain digested by trypsin; gel filtration)
T1 sequence (looked up): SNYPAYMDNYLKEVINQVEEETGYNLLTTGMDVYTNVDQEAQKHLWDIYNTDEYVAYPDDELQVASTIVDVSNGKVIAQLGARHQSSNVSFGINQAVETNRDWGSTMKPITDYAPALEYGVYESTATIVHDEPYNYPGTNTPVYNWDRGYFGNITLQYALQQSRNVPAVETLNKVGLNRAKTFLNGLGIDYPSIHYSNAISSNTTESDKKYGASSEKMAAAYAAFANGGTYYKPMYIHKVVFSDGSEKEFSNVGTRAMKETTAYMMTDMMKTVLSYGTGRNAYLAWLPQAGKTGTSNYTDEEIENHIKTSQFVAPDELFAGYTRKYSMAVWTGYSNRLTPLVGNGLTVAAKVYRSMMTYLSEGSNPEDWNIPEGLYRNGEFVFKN

[2] = target: B1; test: as above; conditions: both partners purified

B1
Kd [1]: > 10 µM

B2: PBP2bTP, transpeptidase domain of PBP2b (Met39 to Asn685) (domain or fragment)
chain: MQVLNKDFYEKKLASASQTKITSSSARGEIYDASGKPLVENTLKQVVSFTRSNKMTATDLKETAKKLLTYVSISSPNLTERQLADYYLADPEIYKKIVEALPSEKRLDSDGNRLSESELYNNAVDSVQTSQLNYTEDEKKEIYLFSQLNAVGNFATGTIATDPLNDSQVAVIASISKEMPGISISTSWDRKVLETSLSSIVGSVSSEKAGLPAEEAEAYLKKGYSLNDRVGTSYLEKQYEETLQGKRSVKEIHLDKYGNMESVDTIEEGSKGNNIKLTIDLAFQDSVDALLKSYFNSELENGGAKYSEGVYAVALNPKTGAVLSMSGIKHDLKTGELTPDSLGTVTNVFVPGSVVKAATISSGWENGVLSGNQTLTDQSIVFQGSAPINSWYTQAYGSFPITAVQALEYSSNTYMVQTALGLMGQTYQPNMFVGTSNLESAMEKLRSTFGEYGLGTATGIDLPDESTGFVPKEYSFANYITNAFGQFDNYTPMQLAQYVATIANNGVRVAPRIVEGIYGNNDKGGLGDLIQQLQPTEMNKVNISDSDMSILHQGFYQVAHGTSGLTTGRAFSNGALVSISGKTGTAESYVADGQQATNTNAVAYAPSDNPQIAVAVVFPHNTNLTNGVGPSIARDIINLYQKYHPMN
Kd [2]: > 10 µM
